# Patent US20040175804A1, “Process for preparing dideoxyinosine using adenosine deaminase enzyme” (priority 2003, published 2004)
# How the values were obtained:
# [1] = ADA activity assay (1 U = 1 μmol of ddA deaminated/min at 37° C.); assay type: biochemical; conditions: 1 unit = 1 μmol of ddA deaminated/min at 37° C.; on IPS-400 support
# Procedure: The enzyme so derived should be assayed for activity. As used herein, a unit (U) of enzymatic activity is that amount of enzyme which will deaminate 1 μmol of ddA per minute at 37° C. Desirably, the final enzyme titer is from about 650-750 U/ml. The assay may be performed by adding enzyme to a 2.4% solution of ddA at 37° C. The reaction is allowed to proceed for 15 min while gently stirring. Tetrahydrofuran is added to stop the reaction. A sample is taken and run on HPLC to determine the amount of ddI formed.
# The immobilized enzyme assays show an enzymatic activity of ˜100 U/g. (1 unit=1 μmol of ddA deaminated/min at 37° C.).
# [2] = Conversion of a 52-60 g/L solution of ddA in water to ddI by adenosine deaminase; assay type: biochemical; conditions: for Conversion of ddA to ddI: 40 U/g ddA, 52-60 g/L ddA in water
# Procedure: 100.0 g ddA is added to 1900 ml of water at 30° C. (mother liquor from previous runs can also be used). After the ddA has been added (complete dissolution is not necessary), 4000 U of immobilized rec human adenosine deaminase is added. […] The reaction is complete (approximately 5-8 hours) when the level of residual ddA is less than or equal to 1% of the original amount of ddA added. The enzyme solids are removed by filtration (20-30 μm media) and the enzyme cake is washed with 100 ml water. The used enzyme is held as a wet cake at 0-5° C. (for up to 72 hours) and can be recycled to another batch.
# Microbial ADA from recombinant E. coli was partially purified and isolated as an ammonium sulfate suspension. E. coli fermentation broth (42 U ADA/mL, 2 L) was centrifuged and the cell pellet was collected and washed with 1 L 100 mM phosphate buffer pH 7.5. The cells were again centrifuged and resuspended in 2 L of the above buffer plus 20% glycerol. The cells were passed once through a microfluidizer. Cell debris was removed by centrifugation and the resulting supernatant was concentrated by ultrafiltration through a 30,000 MWCO cassette. The enzyme was concentrated to a final titer of 390 U/ml. Ammonium sulfate was added to a 50% saturation, the resulting precipitate was collected by centrifugation and re-suspended in 100 ml deionized water. The final titer of the slurry was 740 U/ml; the protein content of the slurry was ˜75 mg/ml.
molecule,measurement,setting,value
"Recombinant human immobilized ADA: Human adenosine deaminase (SEQ ID NO: 1) expressed in E. coli, immobilized on glutaraldehyde-activated IPS-400 support (protein, listed as Homo sapiens, immobilized on glutaraldehyde-activated IPS-400 support; (1)..(363) gi 14043373) MAQTPAFDKPKVELHVHLDGSIKPETILYYGRRRGIALPANTAEGLLNVIGMDKPLTLPDFLAKFDYYMPAIAGCREAIKRIAYEFVEMKAKEGVVYVEVRYSPHLLANSKVEPIPWNQAEGDLTPDEVVALVGQGLQEGERDFGVKARSILCCMRHQPNWSPKVVELCKKYQQQTVVAIDLAGDETIPGSSLLPGHVQAYQEAVKSGIHRTVHAGEVGSAEVVKEAVDILKTERLGHGYHTLEDQALYNRLRQENMHFEICPWSSYLTGAWKPDTEHAVIRLKNDQANYSLNTDDPLIFKSTLDTDYQMTKRDMGFTEEEFKRLNINAAKSSFLPEDEKRELLDLLYKAYGMPPSASAGQNL",Enzymatic activity of immobilized enzyme,[1],~100 U/g
same,Conversion of ddA to ddI,"[2]; 30 °C, 4.5 hours",100%
same,Conversion of ddA to ddI,"[2]; 40 °C, 1.5 hours",100%
same,Stability of the enzyme in the ddA to ddI reaction,[2]; compared with microbial enzymes,significantly more stable than microbial enzymes
